Measured values taken from PMC314469, “Protein Interaction Networks by Proteome Peptide Scanning” (PLoS Biology, 2004).

T1: Boi1 SH3 (BOI1_YEAST), P38041
T1 chain: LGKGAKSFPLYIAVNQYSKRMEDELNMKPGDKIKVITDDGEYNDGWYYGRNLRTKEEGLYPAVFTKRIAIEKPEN

T2: Boi2 SH3 (BOI2_YEAST), P39969
T2 chain: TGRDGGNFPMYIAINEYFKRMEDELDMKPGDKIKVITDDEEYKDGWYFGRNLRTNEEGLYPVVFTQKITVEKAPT

T3: Yhr016c SH3 (YSC84_YEAST), P32793
T3 chain: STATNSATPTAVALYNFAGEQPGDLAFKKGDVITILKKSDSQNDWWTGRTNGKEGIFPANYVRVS

T4: Yfr024 SH3 (LSB3_YEAST), P43603
T4 chain: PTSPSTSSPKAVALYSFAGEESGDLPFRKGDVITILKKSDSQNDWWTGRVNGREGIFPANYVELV

T5: Rvs167 SH3 (RV167_YEAST), P39743
T5 chain: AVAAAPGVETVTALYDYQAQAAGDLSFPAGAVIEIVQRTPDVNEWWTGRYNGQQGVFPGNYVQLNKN


What was measured:
Assay in all cases: SPOT array
[1] = molecular target: T1, Boi1 SH3 (BOI1_YEAST), P38041
[2] = molecular target: T2, Boi2 SH3 (BOI2_YEAST), P39969
[3] = molecular target: T3, Yhr016c SH3 (YSC84_YEAST), P32793
[4] = molecular target: T4, Yfr024 SH3 (LSB3_YEAST), P43603
[5] = molecular target: T5, Rvs167 SH3 (RV167_YEAST), P39743

Binder	normalised SPOT signal, Boehringer light units (BLU); mean over the file's lines of this peptide [1]	normalised SPOT signal, Boehringer light units (BLU); mean over the file's lines of this peptide [2]	normalised SPOT signal, Boehringer light units (BLU); mean over the file's lines of this peptide [3]	normalised SPOT signal, Boehringer light units (BLU); mean over the file's lines of this peptide [4]	normalised SPOT signal, Boehringer light units (BLU); mean over the file's lines of this peptide [5]
VFSPTNPLRIKIAR [YGR217W 326-339]	110	16.2	151	648	1.8
VHGPGIPMKSLEVA [YBR297W 381-394]	44.3	49.9	381	32.9	43.5
TTRPAPPSKAKDVA [YAL011W 347-360]	61.3	72	251	767	125
VGNPEGPEKPNKKF [YKL060C 315-328]	255	50.6	131	186	34.3
VAKPKKPARPTMST [YNL298W 513-526]	71.1	77.1	4950	9080	86.9
VETPPKPIKKDVRF [YDR085C 535-548]	65	70.6	372	677	86.3
VHGPGVPVKTLEIA [YGR288W 386-399]	114	56.6	116	43.4	52.7
VDFPIFPRRFAKVE [YJL091C 152-165]	2050	135	1680	16100	512
TSSPPLPPRQNVAT [YPL249C 279-292]	37.2	30.4	47000	25300	16700
VFLPTAPSKHMDFA [YCR042C 478-491]	100	46.3	44.5	242	208
TSKPSLPEKPQKLR [YPR171W 333-346]	252	19.2	319	11600	63.1
VSPPSFPSRRSETS [YPL006W 878-891]	703	117	42100	40300	1730
VDAPINPTKILTFI [YBR163W 375-388]	52.9	69.3	34	0	67.9
VERPSSPTKTITTE [YML109W 711-724]	39.5	45.2	159	0	24.4
TTAPRGPKKAQPAQ [YGR097W 176-189]	138	43.9	264	169	89.5

Second part, the binder after the results:

normalised SPOT signal, Boehringer light units (BLU); mean over the file's lines of this peptide [1]	normalised SPOT signal, Boehringer light units (BLU); mean over the file's lines of this peptide [2]	normalised SPOT signal, Boehringer light units (BLU); mean over the file's lines of this peptide [3]	normalised SPOT signal, Boehringer light units (BLU); mean over the file's lines of this peptide [4]	normalised SPOT signal, Boehringer light units (BLU); mean over the file's lines of this peptide [5]	Binder
7.6	15.7	188	82.3	0	VENPFLPAKEERTG [YIL115C 910-923]
22.9	57.8	110	562	51.5	VHDPNIPLRPKEII [YGR184C 643-656]
56.4	27.7	92.9	138	27.7	VHGPVIPMKALEIA [YPR196W 383-396]
70.9	37.7	-0	579	23.3	VDPPFMPFRDAGYS [YFR028C 120-133]
81.6	22.9	114	1540	18.4	TTVPTKPKKPHDIS [YKR084C 145-158]
16400	1870	122000	36200	55700	TSTPPLPRRRATTS [YGL181W 247-260]
1470	73.2	27300	32400	32500	VAPPPLPNRQLPNL [YNL094W 505-518]
